Measurements from publication PMC5643494, “TRPA1–FGFR2 binding event is a regulatory oncogenic driver modulated by miRNA-142-3p” (Nature Communications, 2017).

Columns and labels:
[1] = biological target: TRPA1-GFP truncated of 5 ankyrin repeats (Δ5-GFP); test: FRET or BRET; FLIM-FRET in fixed serum-starved HEK 293T cells co-expressing FGFR2-RFP with Δ5-GFP or Δ10-GFP; shift of GFP lifetime against empty GFP vector
[2] = biological target: T1, purified full-length human TRPA1 (human, UniProt O75762 1-1119, biotinylated with EDC-based carboxyl-biotinylation reagent (streptavidin pull-down); labeled with Alexafluor 488 (MST); unlabelled in the GST pull-down); test: pull-down; GST constructs on glutathione-sepharose beads incubated with purified full-length TRPA1; western blot; settings: both partners purified
T1 construct: human TRPA1, full length; kept in PBS with 0.014% F-14; also called hTRPA1; full-length purified TRPA1; source: Pichia pastoris, purified (Ni-NTA)
T1 sequence (O75762 whole entry): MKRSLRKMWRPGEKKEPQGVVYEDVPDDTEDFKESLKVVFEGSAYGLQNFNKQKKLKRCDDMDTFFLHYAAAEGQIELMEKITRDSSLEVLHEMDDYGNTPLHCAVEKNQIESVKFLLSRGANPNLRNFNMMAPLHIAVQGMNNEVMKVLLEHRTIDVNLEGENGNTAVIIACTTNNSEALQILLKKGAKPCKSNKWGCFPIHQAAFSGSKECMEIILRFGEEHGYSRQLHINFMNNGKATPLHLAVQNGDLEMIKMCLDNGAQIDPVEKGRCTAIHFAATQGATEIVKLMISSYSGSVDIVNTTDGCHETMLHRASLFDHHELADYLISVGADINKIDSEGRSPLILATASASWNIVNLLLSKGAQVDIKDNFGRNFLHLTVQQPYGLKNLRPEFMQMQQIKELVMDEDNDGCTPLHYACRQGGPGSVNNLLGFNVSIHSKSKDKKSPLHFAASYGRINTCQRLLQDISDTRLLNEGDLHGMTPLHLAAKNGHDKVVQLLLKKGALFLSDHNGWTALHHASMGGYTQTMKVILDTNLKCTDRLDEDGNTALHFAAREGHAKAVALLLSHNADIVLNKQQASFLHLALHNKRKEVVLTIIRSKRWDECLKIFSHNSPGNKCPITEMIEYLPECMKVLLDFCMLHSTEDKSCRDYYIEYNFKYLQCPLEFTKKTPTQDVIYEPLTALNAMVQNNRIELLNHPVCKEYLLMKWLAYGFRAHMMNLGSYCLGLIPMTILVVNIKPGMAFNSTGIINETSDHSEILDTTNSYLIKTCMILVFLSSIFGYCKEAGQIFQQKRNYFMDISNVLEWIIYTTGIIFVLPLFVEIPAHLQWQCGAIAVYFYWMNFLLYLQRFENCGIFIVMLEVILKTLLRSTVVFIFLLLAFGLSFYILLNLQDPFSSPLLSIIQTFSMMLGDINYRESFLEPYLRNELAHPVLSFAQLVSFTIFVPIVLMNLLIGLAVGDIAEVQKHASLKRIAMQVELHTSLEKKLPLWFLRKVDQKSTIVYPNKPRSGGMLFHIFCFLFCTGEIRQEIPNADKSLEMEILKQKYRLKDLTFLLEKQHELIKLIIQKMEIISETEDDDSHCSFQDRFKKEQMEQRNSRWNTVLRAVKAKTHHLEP

Sequence of FGFR2-RFP (P21802 22-821): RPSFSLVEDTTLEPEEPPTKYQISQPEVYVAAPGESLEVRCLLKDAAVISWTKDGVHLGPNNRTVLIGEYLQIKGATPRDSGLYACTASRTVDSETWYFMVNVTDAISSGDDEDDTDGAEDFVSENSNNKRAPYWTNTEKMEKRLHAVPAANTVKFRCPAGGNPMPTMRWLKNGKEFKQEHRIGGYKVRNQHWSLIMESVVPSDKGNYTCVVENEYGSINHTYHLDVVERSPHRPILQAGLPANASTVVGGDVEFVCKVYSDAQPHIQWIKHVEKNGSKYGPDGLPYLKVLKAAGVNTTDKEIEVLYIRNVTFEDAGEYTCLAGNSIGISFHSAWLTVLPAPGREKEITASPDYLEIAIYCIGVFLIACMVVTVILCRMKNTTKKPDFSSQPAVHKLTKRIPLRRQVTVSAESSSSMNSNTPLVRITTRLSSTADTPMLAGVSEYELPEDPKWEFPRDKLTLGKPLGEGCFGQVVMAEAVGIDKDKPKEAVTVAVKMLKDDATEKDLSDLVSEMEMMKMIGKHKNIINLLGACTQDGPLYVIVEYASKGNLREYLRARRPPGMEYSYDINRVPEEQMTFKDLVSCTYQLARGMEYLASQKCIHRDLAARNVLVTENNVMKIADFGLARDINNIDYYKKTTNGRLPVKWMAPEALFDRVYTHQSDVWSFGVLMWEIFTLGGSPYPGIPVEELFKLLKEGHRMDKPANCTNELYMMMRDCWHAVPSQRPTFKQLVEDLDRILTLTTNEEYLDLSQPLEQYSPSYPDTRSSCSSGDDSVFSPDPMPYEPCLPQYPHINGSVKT
Sequence of TRPA1-GFP truncated of 5 ankyrin repeats (Δ5-GFP) (O75762 whole entry, stated change not applied, the tested form may be a part): as the sequence (O75762 whole entry) above

shift of GFP fluorescence lifetime (FLIM-FRET) [1] [ns] | binding result [2] | Molecule
0.09 |  | FGFR2-RFP (from UniProt P21802 22-821) (receptor)
 | binds | GST fusion of FGFR2 residues 764-821 with P804A (C4) (domain or fragment, UniProt P21802 764-821, looked up, FGFR2, last 58 amino acids, residues 764-821, P804A) TTNEEYLDLSQPLEQYSPSYPDTRSSCSSGDDSVFSPDPMAYEPCLPQYPHINGSVKT
 | binds | GST fusion of the last 58 amino acids of FGFR2 (residues 764-821), wild-type construct (C) (domain or fragment, UniProt P21802 764-821, looked up, FGFR2, last 58 amino acids, residues 764-821; PGEX vector) TTNEEYLDLSQPLEQYSPSYPDTRSSCSSGDDSVFSPDPMPYEPCLPQYPHINGSVKT
